This data set deals with the molecule itself. As to the kind of experiment: crystal structure; micro-batch under oil at 4 °C with seeding; 0.1 M magnesium sulfate heptahydrate, 0.1 M sodium acetate pH 5, 20% (w/v) PEG 1000; space group P4(3)2(1)2; 2.12 Å; two protomers in the asymmetric unit.

The source of these data is article PMC10006087, “The TINCR ubiquitin-like microprotein is a tumor suppressor in squamous cell carcinoma” (Nature Communications, 2023).

B1: human TINCR protein (natural protein, UniProt A0A2R8Y7D0 1-87, looked up)
chain: MEGLRRGLSRWKRYHIKVHLADEALLLPLTVRPRDTLSDLRAQLVGQGVSSWKRAFYYNARRLDDHQTVRDARLQDGSVLLLVSDPR
notes: TINCR ubiquitin-like microprotein, human; The N-terminal 15-residue cap is visible in protomer A only; also called TINCR ubiquitin-like microprotein; TINCR recombinant protein
Turning to B1, the binding result is “binds”.
